The record followed here is the nanobody polyreactivity screen of Harvey et al. (2022).

The data set in a line: yeast display, Sf9 membrane polyspecificity reagent, FACS + sequencing; frameworks hold sequencing errors. In short, it runs like this:
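Polyreactivity labels are assigned by the sorting gate from which each nanobody was recovered. The gates were low and high (top ~1%), set on anti-HA fluorescence for expression and streptavidin fluorescence for reagent binding. Before sorting, galactose-induced (36–48 hours) yeast display cells were stained for 1 hour at 4 °C with 10% biotinylated, detergent-solubilized Sf9 membrane reagent.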
Regarding “QVQLVESGGGLVQEGGSLRLSCAASGSIFQYYALGWYRPAPGKERELVAAISSGGRTNYADSVKGRFTISRDNAKNSVYLQMNSLKPEDTAVYYCAAARYYYQVYRWEYDYWGQGTQVTVSS”, the “polyreactivity (PSR sort gate)” value is listed as “high polyreactivity”.

For “QVQLVESGGGLVQEGGSLRLSCAASGSIFRFYVMGWYRQAPGKERELVAAISIGGSTNYADSVKGRFTISRDNAKNTVYLQMNSRKPEDTAVYYCAADDWYGAGLPHGTEFDYWGQGTQVTVSS”, the “polyreactivity (PSR sort gate)” value is recorded as “low polyreactivity”.

Take “QVQLVESGGGLVQEGGSLRLSCAASGSIFRVNTMGWYRQAPGKERELVATISSGARTNYADSVKGRFTISRDNAKNTVYLQMNSLKPEDTAVYYCAADRSWGYPRWFTSRYDYWGQGTQVTVSS”: the “polyreactivity (PSR sort gate)” value was “high polyreactivity”.

Regarding “QVQLVESGGGLVQEGGSLRLSCAASGSNLKGYAMGWYRQAPGKERELVARITRGGSTNYADSVKGRFTISRDNAKNTVYLQRNSLKPEDTAVYYCNKSGRWSARSASREVGDDYWGQGTQVTVSS”, the “polyreactivity (PSR sort gate)” value is recorded as “low polyreactivity”.

Consider “QVQLVESGGGLVQEGGSLRLSCAASGSTFAYNAKGWYRQAPGKERELVARISSSGDITYDADSVKGRFTISRDNAKNTVYLQMNSLKPEDTAVYYCAKRYLTRYKGYYYWGQGTQVTVSS”, for which the “polyreactivity (PSR sort gate)” value is listed as “high polyreactivity”.

For “QVQLVESGGGLVQEGGSLRLSCAASGSTFDIYAMGWYRQAPGKERELVAAIRGRGGSTYYADSVKGRFTISRDNGKNTVYLQMNSLKPEDTAVYYCAADSYATRYYYWGQGTQVTVSS”, the “polyreactivity (PSR sort gate)” value was “high polyreactivity”.

As to “QVQLVESGGGLVQEGGSLRLSCAASGSTFEYNAMGWYRQAPGKERELVADISWRGGGTYYADSVKGRFTISRDNAKNTVYLQMNSLKPEDTAVYYCNTVSRNGFYRTRHDYWGQGTQVTVSS”, the “polyreactivity (PSR sort gate)” value was “low polyreactivity”.

Take “QVQLVESGGGLVQEGGSLRLSCAASGSTFHDNAMGWYRQAPGKERELVASITGSSGSTYYADSVKGRFTISRDNAKNTVYLQMNSLKPEDTAVYYCADEGSRWYYFFYGGGGYWGQGTQVTVSS”: the “polyreactivity (PSR sort gate)” value was “low polyreactivity”.

Take “QVQLVESGGGLVQEGGSLRLSCAASGSTFHGYAMGWYRQAPGKERELVASISWSGGRTYYADSVKGRFTISRDNAKNTVYLQMNSMKPEDTAVYYCAAETGGLGGDYLGQGTQVTVSS”: the “polyreactivity (PSR sort gate)” value was “low polyreactivity”.

“QVQLVESGGGLVQEGGSLRLSCAASGSTFWANAMGWYRQAPGKERELVAGITWNAGSTYYADSVKGRFTISRVDANNSVYLHMNSLKPEDTAVYYCAAFYHFQGWGPGYISWGQGTQVSVSS”: the “polyreactivity (PSR sort gate)” value is “low polyreactivity”.

Consider “QVQLVESGGGLVQEGGSLRLSCAASGTFYRYAMGWYRQAPGKERELVAAISRSGGSTYYADSVKGRFTISRDNAKNTVYLQMNSLKPEDTAVYYCAAYSRSFYLASLYDYWGQGTQVTVSS”, for which the “polyreactivity (PSR sort gate)” value is recorded as “high polyreactivity”.

For the sequence “QVQLVESGGGLVQEGGSLRLSCAASGYIFYYYAMGRYIQAPGKERELVAAISTSDTRTFYADSVKGRFTISRDNAKNTVYLQMNSRKPEDTAVYFCAASLYKGGPNYGYEYWGQGTQVTVSS”, the “polyreactivity (PSR sort gate)” value is given as “low polyreactivity”.

With “QVQLVESGGGLVQEGGSLRLSCAAYGRIFAPYSMGWYRQAPGKERELVAAITSGGSTNYADSVKGRFTISRDNAKNTVYLQMNSLKPEDTSVYYCASEASYNYVKYVVTYVYWGQGTQVTVSS”, the “polyreactivity (PSR sort gate)” value is listed as “high polyreactivity”.

In the case of “QVQLVESGGGLVQEGGSLRLSCASSGRIFDYYAMGWYRQAPGKESELVAAISSSVGNTYYADSVKGRFTISRDNAKNTVYFQMNRLKQEDTAVYYFADYSYVRSSYEVEYDYWGQGTQVTVSS”, the “polyreactivity (PSR sort gate)” value is listed as “low polyreactivity”.

As to “QVQLVESGGGLVQEGGSLRLSWAASGITFGGYAMGWYRQAPGKERELVAAISRGGGSTNYADSVKGRFTISLDNANNTVYLQMNSLKPEDTAVYYCNARRQNSRYDYWGQGTQVTVST”, the “polyreactivity (PSR sort gate)” value is reported as “low polyreactivity”.

Regarding “QVQLVESGGGLVQEGGSLSLSCAASGYIFYIYAMGWYRQAPGKERELVATISWSGGDTYYADSVKGRFTISRDNANNTVYLQMNSLNPEDTAVYYCATEVGQSWAGDGDYEYWGQGTQVTVSS”, the “polyreactivity (PSR sort gate)” value is given as “low polyreactivity”.
